# Measured values from IntAct's records for PubMed 20956287.
# B1: SH2 domain-containing protein 3C (Mus musculus), Q9QZS8-1 (parent)
# chain: MTEMPKKTGRKFKFFKFKGLGSLSNLPRSFSLRRSSASASIRSCPEPDTFEATQDDMVTLPKSPPAYARSSDMYSHMGTMPRPNIKKAQKQQAVQKAQEVSRESHLVSRRLPEPPDLEAAKEAGEGTEALLEDTAPSAVEVDPMRELEDLTVDTEKEQVPGDVSPERTAAELEAAGDYVKFSKEKYILDSSPEKLHKELEEELKLSSTDLRSHAWYHGRIPREVSETLVQRNGDFLIRDSLTSLGDYVLTCRWHNQALHFKINKVVVKAGESYTHIRYLFEQESFDHVPALVRYHVGSRKAVSEQSGAIIYCPVNRTFPLRYLEASYGLSQGSSKTASPASPSGSKGSHMKRRSITMTDGLTTDKVTRSDGCPNSTSLPHPRDSIRNCALSMDQIPDLHSPLSPISESPSSPAYSTVTRVHAPSATPSTSAQPASPVARRSSEPQLCPGNTPKPPGESDRAPHASPSHTLCKASPSPSLSSYSDPDSGHYCQLQPPVRGSREQAAGETPRKARGSGERQKELLENGVSDGEWGKTFTVPVVEATSSFNLATFQSQLIPKENRPLEVALLRKVKELLSEVDARTLARHVTKVDCLVARILGVTKEMQTLMGVRWGMELLTLPHGRQLRLDLLERFHTMSIMLAVDILGCTGSAEERAALLHKTIQLAAELRGTMGNMFSFAAVMGALEMAQISRLEQTWMTLRQRHTEGAILYEKKLKPFLKSLNEGKEGPPLSNTTFPHVLPFITLLECDSAPAEGPEPWGSTEHGVEVVLAHLEAARTVAHHGGLYHTNAEVKLQGFQARPELLEVFSTEFQMRLLWGSQGANSSQAWRYEKFDKVLTALSHKLEPAIRSSEL
# partner: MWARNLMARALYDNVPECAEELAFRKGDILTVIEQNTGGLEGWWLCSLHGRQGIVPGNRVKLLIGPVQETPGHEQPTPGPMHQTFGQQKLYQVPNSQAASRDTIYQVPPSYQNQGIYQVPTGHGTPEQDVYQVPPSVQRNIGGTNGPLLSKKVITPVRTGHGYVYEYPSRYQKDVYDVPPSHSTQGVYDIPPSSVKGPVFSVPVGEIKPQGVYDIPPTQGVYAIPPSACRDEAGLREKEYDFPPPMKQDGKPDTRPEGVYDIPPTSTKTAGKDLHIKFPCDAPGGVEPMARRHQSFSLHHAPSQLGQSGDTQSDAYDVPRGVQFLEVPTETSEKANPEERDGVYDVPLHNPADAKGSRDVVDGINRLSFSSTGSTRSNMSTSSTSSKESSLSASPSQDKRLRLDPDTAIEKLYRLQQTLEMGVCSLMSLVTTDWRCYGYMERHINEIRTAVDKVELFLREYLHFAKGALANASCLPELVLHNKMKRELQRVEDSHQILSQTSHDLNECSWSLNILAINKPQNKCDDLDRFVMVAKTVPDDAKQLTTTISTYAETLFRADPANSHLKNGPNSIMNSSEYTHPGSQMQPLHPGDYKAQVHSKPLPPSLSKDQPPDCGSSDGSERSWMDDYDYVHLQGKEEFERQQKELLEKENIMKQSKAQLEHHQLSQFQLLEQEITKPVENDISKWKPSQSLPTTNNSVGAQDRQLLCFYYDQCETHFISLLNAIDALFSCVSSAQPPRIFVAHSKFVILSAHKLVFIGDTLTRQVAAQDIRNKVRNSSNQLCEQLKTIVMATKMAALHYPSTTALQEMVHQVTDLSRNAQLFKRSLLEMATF
# Variants of: B1
# Conditions: with casl_mouse Nedd9, O35177
row,Variant,effect of a mutation on the interaction
1,Y787E,disrupting interaction
